For the experiment, the target named is His-Pak4cat (UniProt O96013).

For two substances, IC50 of inhibition of His-Pak4cat kinase activity (in vitro kinase assay, ADP-Glo luminescence, AKT1 peptide substrate; dose-response with 0.75 ng-400 ng of GST-Inka1-iBox) and IC50 of inhibition of His-Pak4cat kinase activity (in vitro kinase assay, ADP-Glo luminescence, AKT1 peptide substrate; dose-response with 0.75 ng-400 ng of GST-Inka2-iBox) results are on record in paper PMC9612522.

Chain of UniProt O96013 (O96013 286-591): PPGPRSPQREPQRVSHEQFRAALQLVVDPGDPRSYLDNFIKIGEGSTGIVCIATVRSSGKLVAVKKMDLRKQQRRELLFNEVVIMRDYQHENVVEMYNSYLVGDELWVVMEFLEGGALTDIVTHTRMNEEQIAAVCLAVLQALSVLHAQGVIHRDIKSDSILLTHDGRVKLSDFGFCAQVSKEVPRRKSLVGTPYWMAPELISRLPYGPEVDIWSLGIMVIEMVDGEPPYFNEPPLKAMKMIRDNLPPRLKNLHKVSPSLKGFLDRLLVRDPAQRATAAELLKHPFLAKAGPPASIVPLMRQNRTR
Chain of GST-Inka2-iBox (Q9NTI7 133-193): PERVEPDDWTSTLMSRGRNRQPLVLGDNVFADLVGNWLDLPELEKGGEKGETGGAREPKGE
Chain of GST-Inka1-iBox (Q96EL1 166-203): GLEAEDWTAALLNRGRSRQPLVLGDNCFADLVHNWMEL

Substance “GST-Inka1-iBox (from UniProt Q96EL1 166-203) (domain or fragment)” gave an IC50 of inhibition of His-Pak4cat kinase activity (in vitro kinase assay, ADP-Glo luminescence, AKT1 peptide substrate; dose-response with 0.75 ng-400 ng of GST-Inka1-iBox) of 0.0677 µM.

“GST-Inka2-iBox (from UniProt Q9NTI7 133-193) (domain or fragment)” registered an IC50 of inhibition of His-Pak4cat kinase activity (in vitro kinase assay, ADP-Glo luminescence, AKT1 peptide substrate; dose-response with 0.75 ng-400 ng of GST-Inka2-iBox) of 0.0603 µM.
